Assay results as given in paper PMC8740593.

T1: QHB-DB (QHB/OsWOX5 DNA-binding domain) (Oryza sativa (rice), UniProt Q8W0F1 1-82)
T1 sequence: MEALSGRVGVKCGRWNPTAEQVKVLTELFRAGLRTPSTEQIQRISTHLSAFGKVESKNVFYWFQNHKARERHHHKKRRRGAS


Each binder was assayed against T1, QHB-DB (QHB/OsWOX5 DNA-binding domain) (assay: EMSA).

Binder | binding result
P2 (dsDNA) DNA 1: TTTTATAATTAATCACTCCTTGCTGCTTAATCACCCAATTAATCACACCTGATCTACCCA DNA 2: TGGGTAGATCAGGTGTGATTAATTGGGTGATTAAGCAGCAAGGAGTGATTAATTATAAAA | binds
M3 (Core 3 mutated) (dsDNA) DNA 1: TTTTATAATTAATCACTCCTTGCTGCTTAATCACCCAACCGGTCACACCTGATCTACCCA DNA 2: TGGGTAGATCAGGTGTGACCGGTTGGGTGATTAAGCAGCAAGGAGTGATTAATTATAAAA | no binding
M1 (Core 1 mutated) (dsDNA) DNA 1: TTTTATGGCCGGTCACTCCTTGCTGCTTAATCACCCAATTAATCACACCTGATCTACCCA DNA 2: TGGGTAGATCAGGTGTGATTAATTGGGTGATTAAGCAGCAAGGAGTGACCGGCCATAAAA | no binding
P1 (dsDNA) DNA 1: AAAGATAATAAAAATGTTTATTTCGATGCATTAATTAGTTGTTAGAGTCTTTTGTTGTGT DNA 2: ACACAACAAAAGACTCTAACAACTAATTAATGCATCGAAATAAACATTTTTATTATCTTT | no binding
Positive control (AGAMOUS intron) (dsDNA) DNA 1: ATGTCTATTGGATTTATACCCAATGTGTTAATGGGTTGTTGACACATGTCACATGTCTGA DNA 2: TCAGACATGTGACATGTGTCAACAACCCATTAACACATTGGGTATAAATCCAATAGACAT | binds
P3 (dsDNA) DNA 1: GTAGATGGTACCCGCTGCAGTAAGCCTCCATTAAGCTTGAATTGCTGCTCCCTTGGGCGC DNA 2: GCGCCCAAGGGAGCAGCAATTCAAGCTTAATGGAGGCTTACTGCAGCGGGTACCATCTAC | no binding
